EC50 for HA1H peptide (pulsing concentration) in killing of SupT1 anti-HA1H TCR target cells, 48 h co-culture, 2:1 effector to target, flow cytometry data for two substances are collected here from patent US20200255494A1.

The target in the test is anti-HA1H TCR expressed on SupT1 cells. The test can be described thus: cell-based or functional assay.

Substance “MHC I CAR with β2m-41BBz: HLA-A02 / β2m-41BBz chimeric construct loaded with recombinant HA1H peptide, on transduced PBMC CAR-T cells (from UniProt P61769 21-119; P20963 31-51; Q07011 214-255; P20963 52-163) (peptide-MHC)” came in with an EC50 for HA1H peptide (pulsing concentration) in killing of SupT1 anti-HA1H TCR target cells, 48 h co-culture, 2:1 effector to target, flow cytometry of 100 nM. With “MHC I CAR with β2m-CD3z: HLA-A02 / β2m-CD3z chimeric construct loaded with recombinant HA1H peptide, on transduced PBMC CAR-T cells (from UniProt P61769 21-119; P20963 31-51; P20963 52-163) (peptide-MHC)” the figure was 500 nM.
